B1: CPEB3 Ribozyme (parent)
chain: GGGGGCCACAGCAGAAGCGUUCACGUCGCGGCCCCUGUCAGAUUCUGGUGAAUCUGCGAAUUCUGCUGU

Variants of: B1
Experiment: self-cleavage, relative activity (ratio to wild type); higher = more cleavage; co-transcriptional

Variant	self-cleavage
GGGGGCCUCAGCAGAAGCGUUCACGUCGCGGCCCCUGUCAGAUUCUGGUGAAUCUGCGAAUUCUGCUGU [A8U]	1.01
GGGGGCCUCAGCGGAAGCGUUCACGUCGCGGCCCCUGUCAGAUUCUGGUGAAUCUGCGAAUUCUGCUGU [A8U A13G]	1.02
GGGGGCCUCAGCCGAAGCGUUCACGUCGCGGCCCCUGUCAGAUUCUGGUGAAUCUGCGAAUUCUGCUGU [A8U A13C]	0.855
GGGGGCCUCAGCAGAAGCGUUCACGUCCCGGCCCCUGUCAGAUUCUGGUGAAUCUGCGAAUUCUGCUGU [A8U G28C]	0.101
GGGGGCCUCAGCAGAAGCGUUCGCGUCGCGGCCCCUGUCAGAUUCUGGUGAAUCUGCGAAUUCUGCUGU [A8U A23G]	0.965
GGGGGCCUCAGCAGAAGCGUUCUCGUCGCGGCCCCUGUCAGAUUCUGGUGAAUCUGCGAAUUCUGCUGU [A8U A23U]	1
GGGGGCCUCAGCAGAAGCGUUCACGUCGCGGCCUCUGUCAGAUUCUGGUGAAUCUGCGAAUUCUGCUGU [A8U C34U]	0.985
GGGGGCCUCAGCAGAAGCGUUCACGUCGCGGCCGCUGUCAGAUUCUGGUGAAUCUGCGAAUUCUGCUGU [A8U C34G]	0.718
GGGGGCCUCAGCAGAAGCGUUCACGUCGCGGCCACUGUCAGAUUCUGGUGAAUCUGCGAAUUCUGCUGU [A8U C34A]	0.854
GGGGGCCUCAGCAGAAGCGUUCACGUCGGGGCCCCUGUCAGAUUCUGGUGAAUCUGCGAAUUCUGCUGU [A8U C29G]	0.183
GGGGGCCUCAGCAGAAGCGUUCACGUCGUGGCCCCUGUCAGAUUCUGGUGAAUCUGCGAAUUCUGCUGU [A8U C29U]	0.84
GGGGGCCUCAGCAGAAGCGUUCACGUCGCGGCCCCUAUCAGAUUCUGGUGAAUCUGCGAAUUCUGCUGU [A8U G37A]	0.215
GGGGGCCUCAGCAGAAGCGUUCACGUCGCGGCCCCUUUCAGAUUCUGGUGAAUCUGCGAAUUCUGCUGU [A8U G37U]	0.221
GGGGGCCUCAGCAGAAGCGUUCACGUCGCGGCCCCUGUCAGCUUCUGGUGAAUCUGCGAAUUCUGCUGU [A8U A42C]	0.972
GGGGGCCUCAGCAGAAGCGUUCACGUCGCGGCCCCUGUCAGUUUCUGGUGAAUCUGCGAAUUCUGCUGU [A8U A42U]	0.995
GGGGGCCUCAGCAGGAGCGUUCACGUCGCGGCCCCUGUCAGAUUCUGGUGAAUCUGCGAAUUCUGCUGU [A8U A15G]	0.998
GGGGGCCUCAGCAGUAGCGUUCACGUCGCGGCCCCUGUCAGAUUCUGGUGAAUCUGCGAAUUCUGCUGU [A8U A15U]	0.882
GGGGGCCUCAGCAGAAGCAUUCACGUCGCGGCCCCUGUCAGAUUCUGGUGAAUCUGCGAAUUCUGCUGU [A8U G19A]	0.198
GGGGGCCUCAGCAGAAGCGUUCACGUCGCGACCCCUGUCAGAUUCUGGUGAAUCUGCGAAUUCUGCUGU [A8U G31A]	0.925
GGGGGCCUCAGCAGAAGCGUUCACGUCGCGCCCCCUGUCAGAUUCUGGUGAAUCUGCGAAUUCUGCUGU [A8U G31C]	0.247
GGGGGCCUCAGCAGAAGCGUUCACGUCGCGUCCCCUGUCAGAUUCUGGUGAAUCUGCGAAUUCUGCUGU [A8U G31U]	0.806
GGGGGCCUCAGCAGAAGCGUUCACGUCGCGGCCCCUGUCAGAUUUUGGUGAAUCUGCGAAUUCUGCUGU [A8U C45U]	1.03
GGGGGCCUCAGCAGAAGCGUUCACGUCGCCGCCCCUGUCAGAUUCUGGUGAAUCUGCGAAUUCUGCUGU [A8U G30C]	0.849
GGGGGCCUCAGCAGAAGCGUUCACGUCGCAGCCCCUGUCAGAUUCUGGUGAAUCUGCGAAUUCUGCUGU [A8U G30A]	0.963
GGGGGCCUCAGCAGAAGCGUUCACGUCGCGGCCCCUGUCAGAUUCUGGUGAAUCUGGGAAUUCUGCUGU [A8U C57G]	0.272
GGGGGCCUCAGCAGAAGCGUUCACGUCGCGGCCCCUGUCAGAUUCUGGUGAAUUUGCGAAUUCUGCUGU [A8U C54U]	1.03

Variant	self-cleavage
GGGGGCCUCAGCAGAAGCGUUCACGUCGCGGCCCCUGUCAGAUUCUGGUGAAUGUGCGAAUUCUGCUGU [A8U C54G]	0.919
GGGGGCCUCAGCAGAAGCGUUCACGUCGCGGCCCCUGUCAGAUUCUGGUGAAUAUGCGAAUUCUGCUGU [A8U C54A]	0.857
GGGGGCCUCAGCAGAAGCGUUUACGUCGCGGCCCCUGUCAGAUUCUGGUGAAUCUGCGAAUUCUGCUGU [A8U C22U]	0.203
GGGGGCCUCAGCAGAAGCGUUGACGUCGCGGCCCCUGUCAGAUUCUGGUGAAUCUGCGAAUUCUGCUGU [A8U C22G]	0.133
GGGGGCCUCAGCAGAAGCGUUCAGGUCGCGGCCCCUGUCAGAUUCUGGUGAAUCUGCGAAUUCUGCUGU [A8U C24G]	0.444
GGGGGCCUCAGCAGAAGCGUUCAAGUCGCGGCCCCUGUCAGAUUCUGGUGAAUCUGCGAAUUCUGCUGU [A8U C24A]	0.763
GGGGGCCUCAGCAGAAGCGUUCAUGUCGCGGCCCCUGUCAGAUUCUGGUGAAUCUGCGAAUUCUGCUGU [A8U C24U]	0.713
GGGGGCCGCAGCAGAAGCGUUCACGUCGCGGCCCCUGUCAGAUUCUGGUGAAUCUGCGAAUUCUGCUGG [A8G U69G]	1.04
GGGGGCCUCAGGAGAAGCGUUCACGUCGCGGCCCCUGUCAGAUUCUGGUGAAUCUGCGAAUUCUGCUGU [A8U C12G]	0.897
GGGGGCCUCAGAAGAAGCGUUCACGUCGCGGCCCCUGUCAGAUUCUGGUGAAUCUGCGAAUUCUGCUGU [A8U C12A]	0.683
GGGGGCCUCAGCAGAAGGGUUCACGUCGCGGCCCCUGUCAGAUUCUGGUGAAUCUGCGAAUUCUGCUGU [A8U C18G]	0.142
GGGGGCCUCAGCAGAAGAGUUCACGUCGCGGCCCCUGUCAGAUUCUGGUGAAUCUGCGAAUUCUGCUGU [A8U C18A]	0.177
GGGGGCCUCAGCAGAAGCGUUCACGUCGCGGCCCCUGUCAGAUUCUGGUGUAUCUGCGAAUUCUGCUGU [A8U A51U]	0.999
GGGGGCCUCAGCAGAAGCGUUCACGUCGCGGCCCCUGUCAGAUUCUGGUGGAUCUGCGAAUUCUGCUGU [A8U A51G]	1
GGGGGCCUUAGCAGAAGCGUUCACGUCGCGGCCCCUGUCAGAUUCUGGUGAAUCUGCGAAUUCUGCUGU [A8U C9U]	1.02
GGGGGCCUGAGCAGAAGCGUUCACGUCGCGGCCCCUGUCAGAUUCUGGUGAAUCUGCGAAUUCUGCUGU [A8U C9G]	1.01
GGGGGCCUCAGCAGAACCGUUCACGUCGCGGCCCCUGUCAGAUUCUGGUGAAUCUGCGAAUUCUGCUGU [A8U G17C]	0.141
GGGGGCCUCAGCAGAAUCGUUCACGUCGCGGCCCCUGUCAGAUUCUGGUGAAUCUGCGAAUUCUGCUGU [A8U G17U]	0.491
GGGGGCCUCAUCAGAAGCGUUCACGUCGCGGCCCCUGUCAGAUUCUGGUGAAUCUGCGAAUUCUGCUGU [A8U G11U]	0.902
GGGGGCCUCAACAGAAGCGUUCACGUCGCGGCCCCUGUCAGAUUCUGGUGAAUCUGCGAAUUCUGCUGU [A8U G11A]	0.906
GGGGGCCUCAGCAGAAGCGUUCACGUCGCGGCGCCUGUCAGAUUCUGGUGAAUCUGCGAAUUCUGCUGU [A8U C33G]	0.685
GGGGGCCUCAGCAGAAGCGUUCACGUCGCGGCCCCUGUCACAUUCUGGUGAAUCUGCGAAUUCUGCUGU [A8U G41C]	0.809
GGGGGCCGCAGCAGAAGCGUUCACGUCGCGGCCCCUGUCAGAUUCUGGUGAAUCUGCGAAUUCUGCGGU [A8G U67G]	0.64
GGGGGCCUCAGCAGAAGCGUUCACGUAGCGGCCCCUGUCAGAUUCUGGUGAAUCUGCGAAUUCUGCUGU [A8U C27A]	0.615
GGGGGCCUCAGCAGAAGCGUUCACGUGGCGGCCCCUGUCAGAUUCUGGUGAAUCUGCGAAUUCUGCUGU [A8U C27G]	0.163
GGGGGCCUCAGCAGAAGCGUUCACGUUGCGGCCCCUGUCAGAUUCUGGUGAAUCUGCGAAUUCUGCUGU [A8U C27U]	0.294

Variant	self-cleavage
GGGGGCCUCAGCAGAAGCGUUCACGUCGCGGCCCCUGUGAGAUUCUGGUGAAUCUGCGAAUUCUGCUGU [A8U C39G]	0.988
GGGGGCCUCAGCAGAAGCGUUCACGUCGCGGCCCCUGUAAGAUUCUGGUGAAUCUGCGAAUUCUGCUGU [A8U C39A]	0.864
GGGGGCCUCAGCAGAAGCGUUCACGUCGCGGCCCCUGUCAGAUUCUGGUGAAUCUGCGAAUUCUGGUGU [A8U C66G]	0.826
GGGGGCCUCAGCAGAAGCGUUCACGUCGCGGCCCUUGUCAGAUUCUGGUGAAUCUGCGAAUUCUGCUGU [A8U C35U]	1.01
GGGGGCCUCAGCAGAAGCGUUCACGUCGCGGCCCAUGUCAGAUUCUGGUGAAUCUGCGAAUUCUGCUGU [A8U C35A]	0.257
GGGGGCCUCAGCAGAAGCGUUCACGUCGCGGCCCCUGUCAGAUUCUGGUGAAUCUGCGUAUUCUGCUGU [A8U A59U]	0.799
GGGGGCCUCAGCAGAAGCGUUCACGUCGCGGCCCCUGUCAGAUUCUGGUGAAUCUGCGCAUUCUGCUGU [A8U A59C]	0.601
GGGGGCCUCAGCAGAAGCGUUCACGUCGCGGCCCCUGUCAGAUUCUGGUGAAUCUGCGACUUCUGCUGU [A8U A60C]	0.432
GGGGGCCUCAGCAGAAGCGUUCACGUCGCGGCCCCUGUCAGAUUCUGGUGAAUCUGCGAGUUCUGCUGU [A8U A60G]	0.939
GGGGGCCUCAGCAGAAGCGUUCACGUCGCGGCCCCUGUCAGAUUCUGGUGAAUCUGCGAUUUCUGCUGU [A8U A60U]	0.457
GGGGGCCUCAGCAGAAGCGUUCACGUCGCGGCCCCUGUCUGAUUCUGGUGAAUCUGCGAAUUCUGCUGU [A8U A40U]	0.781
GGGGGCCUCAGCAGAAGCGUUCACGUCGCGGCCCCUGUCCGAUUCUGGUGAAUCUGCGAAUUCUGCUGU [A8U A40C]	0.639
GGGGGCCUCAGCAGACGCGUUCACGUCGCGGCCCCUGUCAGAUUCUGGUGAAUCUGCGAAUUCUGCUGU [A8U A16C]	0.309
GGGGGCCUCAGCAGAGGCGUUCACGUCGCGGCCCCUGUCAGAUUCUGGUGAAUCUGCGAAUUCUGCUGU [A8U A16G]	0.947
GGGGGCCUCAGCAGAUGCGUUCACGUCGCGGCCCCUGUCAGAUUCUGGUGAAUCUGCGAAUUCUGCUGU [A8U A16U]	0.867
GGGGGCCUCAGCAGAAGCGUUCACGUCGCGGCCCCUGUCAGAUUCUGGUGAGUCUGCGAAUUCUGCUGU [A8U A52G]	1.03
GGGGGCCUCAGCAGAAGCGUUCACGUCGCGGCCCCUGUCAGAUUCUGGUGAUUCUGCGAAUUCUGCUGU [A8U A52U]	0.986
GGGGGCCUCAGCAGAAGCGUUCACGUCGCGGCCCCUGUCAGAUUCUGGUGAAUCUGCGAAUUAUGCUGU [A8U C63A]	0.891
GGGGGCCUCAGCAGAAGCGUUCACGUCGCGGUCCCUGUCAGAUUCUGGUGAAUCUGCGAAUUCUGCUGU [A8U C32U]	0.944
GGGGGCCUCAGCAGAAGCGUUCACGUCGCGGGCCCUGUCAGAUUCUGGUGAAUCUGCGAAUUCUGCUGU [A8U C32G]	0.368
GGGGGCCUCAGCAGAAGCGUUCACGUCGCGGACCCUGUCAGAUUCUGGUGAAUCUGCGAAUUCUGCUGU [A8U C32A]	0.877
GGGGGCCUCAGCAGAAGCGUUCACAUCGCGGCCCCUGUCAGAUUCUGGUGAAUCUGCGAAUUCUGCUGU [A8U G25A]	0.179
GGGGGCCUCAGCAGAAGCGUUCACCUCGCGGCCCCUGUCAGAUUCUGGUGAAUCUGCGAAUUCUGCUGU [A8U G25C]	0.0896
GGGGGCCUCAGCAUAAGCGUUCACGUCGCGGCCCCUGUCAGAUUCUGGUGAAUCUGCGAAUUCUGCUGU [A8U G14U]	0.785
GGGGGCCUCAGCAAAAGCGUUCACGUCGCGGCCCCUGUCAGAUUCUGGUGAAUCUGCGAAUUCUGCUGU [A8U G14A]	0.827
GGGGGCCUCUGCAGAAGCGUUCACGUCGCGGCCCCUGUCAGAUUCUGGUGAAUCUGCGAAUUCUGCUGU [A8U A10U]	0.998

From the RNAGym collection of RNA variant scans (doi:10.7554/elife.80360)
